From paper PMC7642358 (Nature Communications, 2020)
Changes are numbered by the printed parent chain.

B1: 48 (VHH)
VHH: QVQLVESGGGLVQAGGSLRLSCAASGFPVAHWWMEWYRQAPGKEREWVAAIFSEGNWTHYADSVKGRFTISRDNAKNTVYLQMNSLKPEDTAVYYCNVKDTGATQFAYDYWGQGTQVTVS
B2: 35 (VHH)
VHH: QVQLVESGGGLVQAGGSLRLSCAASGFPVNYTIMFWYRQAPGKEREWVAAIKSTGEHTLYADSVKGRFTISRDNAKNTVYLQMNSLKPEDTAVYYCNVKDAGQGWQEYDYWGQGTQVTVS
B3: 46 (VHH)
VHH: B2 VHH with Q39K, T54H, E56A, H57T, A101V, Q103N, G104D, W105Q, Q106K, E107S
B4: 44 (VHH)
VHH: QVQLVESGGGLVQAGGSLRLSCAASGFPVERKHMLWYRQSPGKEREWVAAIVSYGNYTTYADSVKGRFTISRDNAKNTVYLQMNSLKPEDTAVYYCNVKDHGFNTVLYDYWGQGTQVTVS
B5: 56 (VHH)
VHH: QVQLVESGGGLVQAGGSLRLSCAASGFPVEMWSMEWYRQAPGKEREWVAAIMSFGYQTWYADSVKGRFTISRDNAKNTVYLQMNSLKPEDTAVYYCNVKDAGNSKALYDYWGQGTQVTVS
B6: 51 (VHH)
VHH: QVQLVESGGGLVQAGGSLRLSCAASGFPVKETWMHWYRQAPGKEREWVAAITSFGYKTYYADSVKGRFTISRDNAKNTVYLQMNSLKPEDTAVYYCNVKDAGDVTHQYDYWGQGTQVTVS
B7: 58 (VHH)
VHH: QVQLVESGGGLVQAGGSLRLSCAASGFPVDAAWMEWYRQAPGKEREWVAAITSYGYRTYYADSVKGRFTISRDNAKNTVYLQMNSLKPEDTAVYYCNVKDMDRWRTTYDYWGQGTQVTVS
B8: 22 (VHH)
VHH: QVQLVESGGGLVQAGGSLRLSCAASGFPVNHYEMEWYRQAPGREREWVAAIMDSTGYETAYADSVKGRFTISRDNAKNTVYLQMNSLKPEDTAVYYCYVYVGASYIGQGTQVTVS
B9: 53 (VHH)
VHH: QVQLVESGGGLVQAGGSLRLSCAASGFPVYATVMHWYRQAPGKEREWVAAIYSTGMWTLYADSVKGRFTISRDNAKNTVYLQMNSLKPEDTAVYYCNVKDEGYDYYYYDYWGQGTQVTVS
B10: 29 (VHH)
VHH: QVQLVESGGGLVQAGGSLRLSCAASGFPVHYTYMRWYRQAPGKEREWVAAIKSYGQHTTYADSVKGRFTISRDNAKNTVYLQMNSLKPEDTAVYYCEVVGETYRGQGTQVTVS
B11: Sybody 17 (VHH)
VHH: QVQLVESGGGLVQAGGSLRLSCAASGFPVKASEMEWYRQAPGKEREWVAAIASIGYNTYYADSVKGRFTISRDNAKNTVYLQMNSLKPEDTAVYYCLVYVGATYIGQGTQVTVS
B12: 33 (VHH)
VHH: B11 VHH with A31T, S32A, A52S, I54T, Y56K, N57S, Y59F, L97H, A102R
B13: 30 (VHH)
VHH: B11 VHH with K30W, A31Y, S32K, A52T, I54A, Y56H, N57H, L97Y, A102E, T103S
B14: 27 (VHH)
VHH: B11 VHH with E35V, A52L, I54Q, Y56H, N57A, Y59E, L97Y, Y99W, A102R, T103S
B15: 24 (VHH)
VHH: QVQLVESGGGLVQAGGSLRLSCAASGFPVSTAEMEWYRQAPGKEREWVAAISSSGTWTYYADSVKGRFTISRDNAKNTVYLQMNSLKPEDTAVYYCYVWVGSSYLGQGTQVTVS
B16: 18 (VHH)
VHH: QVQLVESGGGLVQAGGSLRLSCAASGFPVDYKSMWWYRQAPGKEREWVAAIDSAGDTTTYADSVKGRFTISRDNAKNTVYLQMNSLKPEDTAVYYCTVWVGTTYTGQGTQVTVS
B17: 32 (VHH)
VHH: B16 VHH with D30A, Y31H, D52E, A54T, T59R, T97V, T102E, T103V, T105R
B18: Sybody 16 (VHH)
VHH: QVQLVESGGGLVRAGGSLRLSCAASGFPVASQEMTWYRQAPGKEREWVAAISSSGRQTEYADSVKGRFTISRDNAKNTVYLQMNSLKPEDTAVYYCYVYVGGSYIGQGTQVTVS
B19: 21 (VHH)
VHH: B18 VHH with R13Q, A30K, S31E, Q32S, P41R, S52N, S54H, R56M, Q57T, E59H
B20: 31 (VHH)
VHH: B18 VHH with R13Q, A30W, Q32A, S52N, S54H, Q57I, S85G, G102K
B21: 28 (VHH)
VHH: B15 VHH with S30Y, T31S, S54Y, W57N, W99Y, L105I
B22: 19 (VHH)
VHH: B18 VHH with R13Q, A30Y, S31N, Q32E, S52A, S54Y, Q57L, G102Q
B23: 25 (VHH)
VHH: B18 VHH with R13Q, A30E, Q32T, S52E, S54E, R56H, Q57G, G102A, S103G
B24: 57 (VHH)
VHH: QVQLVESGGGLVQAGGSLRLSCAASGFPVEHDHMHWYRQAPGKEREWVAAIVSQGAYTVYADSVKGRFTISRDNAKNTVYLQMNSLKPEDTAVYYCNVKDWGRAGARYDYWGQGTQVTVS
B25: 37 (VHH)
VHH: QVQLVESGGGLVQAGGSLRLSCAASGFPVYNTWMEWYRQAPGKEREWVAAITSYGFHTYYADSVKGRFTISRDNAKNTVYLQMNSLKPEDTAVYYCNVKDEGNTTAYYDYWGQGTQVTVS
B26: 40 (VHH)
VHH: B25 VHH with Y30Q, N31G, Y54V, F56Y, H57R, N103A, T104I, T105A, A106K, Y107N
B27: 52 (VHH)
VHH: B6 VHH with K30N, E31Y, T32N, H35E, F54W, A101E, D103M, V104W, T105Q, Q107Y
B28: 54 (VHH)
VHH: B25 VHH with Y30W, H57K, T104S, T105Q, A106S, Y107H
B29: 45 (VHH)
VHH: B25 VHH with Y30A, N31G, F56Y, H57R, N103K, T104S, T105S, A106Q, Y107V
B30: 36 (VHH)
VHH: QVQLVESGGGLVQAGGSLRLSCAASGFPVEWKHMTWYRQAPGKEREWVAAIASTGAYTHYADSVKGRFTISRDNAKNTVYLQMNSLKPEDTAVYYCNVKDWGSKTTYYDYWGQGTQVTVS
B31: 43 (VHH)
VHH: B30 VHH with K32T, T35H, T54S, H59V, K104Q, T105D, T106R
B32: 38 (VHH)
VHH: B30 VHH with E30Y, K32A, A52V, T54S, H59A, W101F, S103T, K104Q, T105E, T106H
B33: 49 (VHH)
VHH: B30 VHH with E30H, W31Y, K32T, T35H, T54S, H59V, S103T, K104Y, T105N
B34: 50 (VHH)
VHH: B24 VHH with E30Q, H31Y, D32E, Q54E, V59H, R103W, A104L, G105A, A106Q, R107Y
B35: 41 (VHH)
VHH: B24 VHH with D32Q, Q54T, A56H, V59I, R103D, A104T, G105S, A106Q, R107Y
B36: 47 (VHH)
VHH: B30 VHH with E30V, K32A, T35H, A52T, T54E, Y57H, H59I, S103T, K104Y, T105S
B37: 39 (VHH)
VHH: QVQLVESGGGPVQAGGSLRLSCAASGFPVMWSHMHWYRQAPGKEREWVAAIVSYGAYTIYADSVKGRFTISRDNAKNTVYLQMNSLKPEDTAVYYCNVKDFGGYRYYYDYWGQGTQVTVS

Biological target: SARS-CoV-2 spike receptor-binding domain (2019-nCoV RBD-SD1, residues 319–566) (SARS-CoV-2, UniProt P0DTC2)

Binder | binding result
B1 | binds
B2 | binds
B3 | binds
B4 | binds
B5 | binds
B6 | binds
B7 | binds
B8 | binds
B9 | binds
B10 | binds
B11 | binds
B12 | binds
B13 | binds
B14 | binds
B15 | binds
B16 | binds
B17 | binds
B18 | binds
B19 | binds

Binder | binding result
B20 | binds
B21 | binds
B22 | binds
B23 | binds
B24 | binds
B25 | binds
B26 | binds
B27 | binds
B28 | binds
B29 | binds
B30 | binds
B31 | binds
B32 | binds
B33 | binds
B34 | binds
B35 | binds
B36 | binds
B37 | binds
